Data: patent publication KR20150077770A (dated 2015)

Assays:
[1] = molecular target: T1, AIMP1 (Aminoacyl-tRNA-synthetase-interacting multifunctional protein 1), purified recombinant (UniProt Q12904 1-312, limits assumed); experiment: Luminex multiplex bead assay, anti-HA-biotin / SA-PE detection
T1 construct: also called AIMP1(p43); p43
T1 sequence (looked up): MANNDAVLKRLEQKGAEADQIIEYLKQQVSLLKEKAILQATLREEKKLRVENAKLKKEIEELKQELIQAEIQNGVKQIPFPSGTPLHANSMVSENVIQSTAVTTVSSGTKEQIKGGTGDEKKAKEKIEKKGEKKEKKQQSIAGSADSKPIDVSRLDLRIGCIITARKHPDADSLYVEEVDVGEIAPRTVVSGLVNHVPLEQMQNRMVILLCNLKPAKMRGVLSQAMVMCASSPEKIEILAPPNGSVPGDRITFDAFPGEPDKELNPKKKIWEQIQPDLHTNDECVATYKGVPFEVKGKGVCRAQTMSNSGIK

[2] = molecular target: T2, WRS (Tryptophanyl-tRNA synthetase), purified recombinant (UniProt P23381 1-471, limits assumed); experiment: as above
T2 construct: also called 트립토파닐-tRNA 합성효소
T2 sequence (looked up): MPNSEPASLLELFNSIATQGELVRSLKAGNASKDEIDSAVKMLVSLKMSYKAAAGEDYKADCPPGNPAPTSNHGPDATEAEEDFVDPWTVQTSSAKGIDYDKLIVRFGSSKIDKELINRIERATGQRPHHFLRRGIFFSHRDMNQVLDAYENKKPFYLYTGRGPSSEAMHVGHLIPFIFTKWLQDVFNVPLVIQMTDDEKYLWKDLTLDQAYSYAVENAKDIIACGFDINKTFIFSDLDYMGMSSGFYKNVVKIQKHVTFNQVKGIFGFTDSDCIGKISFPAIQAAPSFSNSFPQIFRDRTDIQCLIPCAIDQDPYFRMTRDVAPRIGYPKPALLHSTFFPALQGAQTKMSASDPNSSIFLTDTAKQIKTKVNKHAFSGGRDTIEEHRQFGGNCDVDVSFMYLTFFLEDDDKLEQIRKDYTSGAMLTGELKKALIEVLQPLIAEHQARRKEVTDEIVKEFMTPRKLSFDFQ

[3] = molecular target: T3, NRS (Asparaginyl-tRNA synthetase), purified recombinant (UniProt O43776 1-548, limits assumed); experiment: as above
T3 construct: also called 아스파라기닐딜-tRNA 합성효소
T3 sequence (looked up): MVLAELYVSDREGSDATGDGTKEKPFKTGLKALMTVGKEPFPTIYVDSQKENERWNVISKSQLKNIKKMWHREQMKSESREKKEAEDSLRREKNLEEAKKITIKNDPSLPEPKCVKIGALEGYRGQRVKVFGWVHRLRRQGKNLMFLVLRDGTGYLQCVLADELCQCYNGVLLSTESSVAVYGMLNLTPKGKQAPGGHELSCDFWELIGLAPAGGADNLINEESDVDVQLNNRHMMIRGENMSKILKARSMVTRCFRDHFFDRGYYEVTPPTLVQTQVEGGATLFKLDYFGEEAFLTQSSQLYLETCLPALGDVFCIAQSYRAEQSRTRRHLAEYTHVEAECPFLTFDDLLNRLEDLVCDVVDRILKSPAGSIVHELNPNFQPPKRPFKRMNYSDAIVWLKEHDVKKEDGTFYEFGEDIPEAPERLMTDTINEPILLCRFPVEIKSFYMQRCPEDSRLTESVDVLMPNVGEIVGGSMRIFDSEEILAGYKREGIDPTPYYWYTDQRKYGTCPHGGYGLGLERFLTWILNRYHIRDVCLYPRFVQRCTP

[4] = molecular target: T4, KRS (Lysyl-tRNA synthetase), purified recombinant (UniProt Q15046 1-597, limits assumed); experiment: as above
T4 construct: also called 리실-tRNA 합성효소
T4 sequence (Q15046 whole entry): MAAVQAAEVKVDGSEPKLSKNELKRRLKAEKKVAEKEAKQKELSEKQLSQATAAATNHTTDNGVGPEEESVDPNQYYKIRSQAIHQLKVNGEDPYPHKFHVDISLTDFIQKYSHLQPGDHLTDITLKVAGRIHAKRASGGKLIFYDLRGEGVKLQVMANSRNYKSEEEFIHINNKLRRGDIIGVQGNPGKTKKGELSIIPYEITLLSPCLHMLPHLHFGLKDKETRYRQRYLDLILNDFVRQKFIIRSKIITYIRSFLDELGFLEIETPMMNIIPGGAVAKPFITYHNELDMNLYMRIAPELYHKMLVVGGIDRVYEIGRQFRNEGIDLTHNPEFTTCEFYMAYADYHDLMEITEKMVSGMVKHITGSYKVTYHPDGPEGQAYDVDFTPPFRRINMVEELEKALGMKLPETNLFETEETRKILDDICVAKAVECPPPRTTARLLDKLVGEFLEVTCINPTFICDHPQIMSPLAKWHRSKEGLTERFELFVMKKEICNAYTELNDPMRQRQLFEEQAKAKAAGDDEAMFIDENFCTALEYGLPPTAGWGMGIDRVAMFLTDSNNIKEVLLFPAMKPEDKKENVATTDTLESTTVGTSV

[5] = molecular target: T5, SRS (Seryl-tRNA synthetase), purified recombinant (UniProt P49591 1-514, limits assumed); experiment: as above
T5 construct: also called 세릴-tRNA 합성효소
T5 sequence (P49591 whole entry): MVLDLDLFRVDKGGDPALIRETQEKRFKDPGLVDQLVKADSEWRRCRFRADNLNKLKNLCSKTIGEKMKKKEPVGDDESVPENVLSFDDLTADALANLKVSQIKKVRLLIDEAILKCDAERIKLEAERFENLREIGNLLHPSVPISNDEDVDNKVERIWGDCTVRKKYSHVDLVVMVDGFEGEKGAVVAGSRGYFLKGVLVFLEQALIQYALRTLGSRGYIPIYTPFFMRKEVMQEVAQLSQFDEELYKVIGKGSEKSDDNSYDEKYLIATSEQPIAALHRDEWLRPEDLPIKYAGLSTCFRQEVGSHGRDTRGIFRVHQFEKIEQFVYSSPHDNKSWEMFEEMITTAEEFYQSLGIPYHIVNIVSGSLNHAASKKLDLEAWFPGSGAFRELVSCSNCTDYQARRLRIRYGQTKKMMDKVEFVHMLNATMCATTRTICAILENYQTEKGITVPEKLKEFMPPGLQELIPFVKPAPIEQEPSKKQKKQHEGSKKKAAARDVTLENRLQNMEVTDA

[6] = molecular target: T6, YRS (Tyrosyl-tRNA synthetase), purified recombinant (UniProt P54577 1-528, limits assumed); experiment: as above
T6 construct: also called 타이로실-tRNA 합성효소
T6 sequence (looked up): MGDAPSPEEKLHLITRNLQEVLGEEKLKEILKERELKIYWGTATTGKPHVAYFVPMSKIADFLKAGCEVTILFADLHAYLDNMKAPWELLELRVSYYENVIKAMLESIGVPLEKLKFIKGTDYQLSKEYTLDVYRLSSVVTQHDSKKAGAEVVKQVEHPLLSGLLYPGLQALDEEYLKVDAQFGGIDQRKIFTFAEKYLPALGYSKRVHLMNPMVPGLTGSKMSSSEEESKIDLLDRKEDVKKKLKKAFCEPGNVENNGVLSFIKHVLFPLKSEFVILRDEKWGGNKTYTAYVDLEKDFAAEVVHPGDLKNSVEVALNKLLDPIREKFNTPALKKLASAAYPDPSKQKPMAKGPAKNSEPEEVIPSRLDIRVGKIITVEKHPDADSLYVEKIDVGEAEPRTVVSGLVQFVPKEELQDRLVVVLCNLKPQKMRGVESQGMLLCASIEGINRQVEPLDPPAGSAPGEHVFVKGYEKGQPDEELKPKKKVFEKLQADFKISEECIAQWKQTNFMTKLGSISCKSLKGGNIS

[7] = molecular target: T7, GRS (Glycyl-tRNA synthetase), purified recombinant (UniProt P41250 55-739, limits assumed); experiment: as above
T7 construct: also called 글리실-tRNA 합성효소
T7 sequence (looked up): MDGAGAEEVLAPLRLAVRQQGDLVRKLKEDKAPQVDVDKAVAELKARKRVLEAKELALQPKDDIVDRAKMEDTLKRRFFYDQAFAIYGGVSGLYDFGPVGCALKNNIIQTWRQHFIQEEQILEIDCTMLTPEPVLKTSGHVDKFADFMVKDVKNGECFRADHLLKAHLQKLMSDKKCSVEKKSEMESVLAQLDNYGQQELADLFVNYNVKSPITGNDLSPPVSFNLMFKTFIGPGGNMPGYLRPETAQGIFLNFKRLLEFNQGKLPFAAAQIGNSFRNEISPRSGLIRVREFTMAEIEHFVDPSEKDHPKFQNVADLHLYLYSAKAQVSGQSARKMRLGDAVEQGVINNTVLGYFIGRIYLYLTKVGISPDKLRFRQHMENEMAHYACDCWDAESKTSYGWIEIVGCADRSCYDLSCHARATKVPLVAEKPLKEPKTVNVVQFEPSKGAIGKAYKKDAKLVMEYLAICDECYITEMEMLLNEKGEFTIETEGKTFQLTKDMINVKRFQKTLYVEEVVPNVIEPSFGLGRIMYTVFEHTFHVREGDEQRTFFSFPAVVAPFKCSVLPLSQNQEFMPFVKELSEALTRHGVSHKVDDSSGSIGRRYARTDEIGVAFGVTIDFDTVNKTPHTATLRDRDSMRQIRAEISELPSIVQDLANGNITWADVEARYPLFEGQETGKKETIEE

[8] = molecular target: T8, HRS (Histidyl-tRNA synthetase), purified recombinant antigen (human, UniProt P12081 1-509, limits assumed); experiment: SPR (ProteOn XPR36), HRS amine-coupled on GLC chip, purified scFv 500-30 nM injected, 25 C
T8 construct: It was immobilised on the GLC chip (SPR), coupled to Luminex beads and used as the ELISA standard; also called HRS 항원; 재조합 HRS 표준물질
T8 sequence (looked up): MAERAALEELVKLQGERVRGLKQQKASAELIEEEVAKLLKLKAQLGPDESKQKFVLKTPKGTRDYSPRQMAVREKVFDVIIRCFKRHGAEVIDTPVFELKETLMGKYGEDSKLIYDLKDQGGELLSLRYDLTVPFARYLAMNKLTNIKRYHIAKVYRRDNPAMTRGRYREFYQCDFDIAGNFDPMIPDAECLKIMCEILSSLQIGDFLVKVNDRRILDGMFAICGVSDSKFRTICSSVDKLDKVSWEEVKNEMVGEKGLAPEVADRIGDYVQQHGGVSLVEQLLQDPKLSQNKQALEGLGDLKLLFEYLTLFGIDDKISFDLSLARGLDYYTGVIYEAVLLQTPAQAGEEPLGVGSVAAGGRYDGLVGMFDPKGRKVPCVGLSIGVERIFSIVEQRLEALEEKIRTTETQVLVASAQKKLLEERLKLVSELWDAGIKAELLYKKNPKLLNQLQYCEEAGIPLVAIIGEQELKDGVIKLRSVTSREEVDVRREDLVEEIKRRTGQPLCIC

B1: anti-HRS scFv Biocon-H1 (scFv)
scFv: EVQLLESGGGLVQPGGSLRLSCAASGFTFSGYYMSWVRQAPGKGLEWVSLISHGGGNIYYADSVKGRFTISRDNSKNTLYLQMNSLRAEDTAVYYCARFPLEFDYWGQGTLVTVSSGGGGSGGGGSGGGGSQSVLTQPPSASGTPGQRVTISCTGSSSNIGSNAVSWYQQLPGTAPKLLIYDDNKRPSGVLDRFSGSKSGTSASLAISGLRSEDEADYYCGTWDDSLSGYVFGGGTKLTVL
notes: Single clone from a human VH3-23/VL1g phage scFv library, expressed in E. coli periplasm; Periplasmic extract was used in the western blot and Luminex assay, Ni-NTA-purified scFv in SPR and ELISA; also called 항 HRS scFv 항체; 본 발명의 항체; not shown: tags from the pComb3X vector (purified on Ni-NTA, detected with anti-HA)
B1: no binding [1]; no binding [2]; no binding [3]. B1: no binding [4]; no binding [5]; no binding [6]. For the same binder, the binding result [7] was “no binding” and the Kd [8] was 70 nM.
